Laboratory results published in patent US20220098305A1.

Molecular target: human CEA (hu N(A2-B2)A-avi-His B) (human)
Assay: SPR (Biacore T200), hu N(A2-B2)A-avi-His B immobilised, Fab as analyte, 1:1 Langmuir fit

Sequence of human CEA (hu N(A2-B2)A-avi-His B) (human) (P06731 whole entry): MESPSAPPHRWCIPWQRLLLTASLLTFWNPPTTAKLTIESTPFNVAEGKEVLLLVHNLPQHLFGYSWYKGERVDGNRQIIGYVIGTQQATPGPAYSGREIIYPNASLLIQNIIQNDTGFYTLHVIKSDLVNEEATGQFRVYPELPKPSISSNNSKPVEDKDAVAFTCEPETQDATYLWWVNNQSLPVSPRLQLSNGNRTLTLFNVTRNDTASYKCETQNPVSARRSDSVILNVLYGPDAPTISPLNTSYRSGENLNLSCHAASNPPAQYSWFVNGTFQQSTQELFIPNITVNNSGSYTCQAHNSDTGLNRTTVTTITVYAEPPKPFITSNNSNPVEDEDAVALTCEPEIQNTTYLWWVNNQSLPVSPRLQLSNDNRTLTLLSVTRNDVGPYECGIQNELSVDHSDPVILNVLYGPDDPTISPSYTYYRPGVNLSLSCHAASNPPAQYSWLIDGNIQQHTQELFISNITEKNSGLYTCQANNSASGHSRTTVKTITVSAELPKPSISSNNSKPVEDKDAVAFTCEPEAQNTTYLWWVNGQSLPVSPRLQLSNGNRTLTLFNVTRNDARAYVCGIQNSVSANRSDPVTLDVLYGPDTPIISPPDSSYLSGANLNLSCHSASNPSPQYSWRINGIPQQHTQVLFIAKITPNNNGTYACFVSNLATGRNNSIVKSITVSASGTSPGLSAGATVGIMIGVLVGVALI

Kd [nM]	Binder
0.559	P1AE0289, CEA (A5B7) Fab (parental murine antibody) (Fab, V domains shown) VH: EVKLVESGGGLVQPGGSLRLSCATSGFTFTDYYMNWVRQPPGKALEWLGFIGNKANGYTTEYSASVKGRFTISRDKSQSILYLQMNTLRAEDSATYYCTRDRGLRFYFDYWGQGTTLTVSS VL: QTVLSQSPAILSASPGEKVTMTCRASSSVTYIHWYQQKPGSSPKSWIYATSNLASGVPARFSGSGSGTSYSLTISRVEAEDAATYYCQHWSSKPPTFGGGTKLEIK
1.7	P1AE4135, Fab derived from P1AE2164 (Fab, V domains shown) VH: EVQLLESGGGLVQPGGSLRLSCAASGFTFTDYYMNWVRQAPGKGLEWLGFIGNKANGYTTEYSASVKGRFTISRDKSKNTLYLQMNSLRAEDTATYYCTRDRGLRFYFDYWGQGTTVTVSS VL: QTVLTQSPATLSLSPGERATLSCRASSSVTYIHWYQQKPGSSPKSWIYATSNLASGIPARFSGSGSGTDYTLTISSLEPEDFAVYYCQHWSSKPPTFGQGTKLEIK
1.25	P1AE4136, Fab derived from P1AE2165 (Fab, V domains shown) VH: EVQLLESGGGLVQPGGSLRLSCAASGFTFTDYYMNWVRQAPGKGLEWLGFIGNKANGYTTEYSASVKGRFTISRDKSKNTLYLQMNSLRAEDTATYYCTRDRGLRFYFDYWGQGTTVTVSS VL: QTVLTQSPATLSLSPGERATLSCRASSSVTYIHWYQQKPGQAPRLLIYATSNLASGIPARFSGSGSGTDFTLTISSLEPEDFAVYYCQHWSSKPPTFGQGTKLEIK
11.3	P1AE4137, Fab derived from P1AE2166 (Fab, V domains shown) VH: EVQLLESGGGLVQPGGSLRLSCAASGFTFTDYYMNWVRQAPGKGLEWLGFIGNKANGYTTEYSASVKGRFTISRDKSKNTLYLQMNSLRAEDTATYYCTRDRGLRFYFDYWGQGTTVTVSS VL: EIVLTQSPATLSLSPGERATLSCRASSSVTYIHWYQQKPGSSPKSWIYATSNLASGIPARFSGSGSGTDFTLTISSLEPEDFAVYYCQHWSSKPPTFGQGTKLEIK
1.47	P1AE4138, Fab derived from P1AE2167 (Fab, V domains shown) VH: EVQLLESGGGLVQPGGSLRLSCAASGFTFTDYYMNWVRQAPGKGLEWLGFIGNKANGYTTEYSASVKGRFTISRDKSKNTLYLQMNSLRAEDTATYYCTRDRGLRFYFDYWGQGTTVTVSS VL: EIVLTQSPATLSLSPGERATLSCRASSSVTYIHWYQQKPGQAPRSWIYATSNLASGIPARFSGSGSGTDFTLTISSLEPEDFAVYYCQHWSSKPPTFGQGTKLEIK
7.58	P1AE4139, Fab derived from P1AE2176 (Fab, V domains shown) VH: EVQLLESGGGLVQPGGSLRLSCAASGFTFTDYYMNWVRQAPGKGLEWVGFIGNKANGYTTEYSASVKGRFTISRDNSKNTLYLQMNSLRAEDTAVYYCTRDRGLRFYFDYWGQGTTVTVSS VL: EIVLTQSPATLSLSPGERATLSCRASSSVTYIHWYQQKPGSSPKSWIYATSNLASGIPARFSGSGSGTDFTLTISSLEPEDFAVYYCQHWSSKPPTFGQGTKLEIK
7.62	P1AE4140, Fab derived from P1AE2177 (Fab, V domains shown) VH: EVQLLESGGGLVQPGGSLRLSCAASGFTFTDYYMNWVRQAPGKGLEWVGFIGNKANGYTTEYSASVKGRFTISRDNSKNTLYLQMNSLRAEDTAVYYCTRDRGLRFYFDYWGQGTTVTVSS VL: EIVLTQSPATLSLSPGERATLSCRASSSVTYIHWYQQKPGQAPRSWIYATSNLASGIPARFSGSGSGTDFTLTISSLEPEDFAVYYCQHWSSKPPTFGQGTKLEIK
1.83	P1AE4141, Fab derived from P1AE2179 (Fab, V domains shown) VH: EVQLLESGGGLVQPGGSLRLSCAASGFTFTDYYMNWVRQAPGKGLEWVGFIGNKANGYTTEYSASVKGRFTISRDKSKNTLYLQMNSLRAEDTAVYYCARDRGLRFYFDYWGQGTTVTVSS VL: QTVLTQSPATLSLSPGERATLSCRASSSVTYIHWYQQKPGSSPKSWIYATSNLASGIPARFSGSGSGTDYTLTISSLEPEDFAVYYCQHWSSKPPTFGQGTKLEIK
2.64	P1AE4142, Fab derived from P1AE2181 (Fab, V domains shown) VH: EVQLLESGGGLVQPGGSLRLSCAASGFTFTDYYMNWVRQAPGKGLEWVGFIGNKANGYTTEYSASVKGRFTISRDKSKNTLYLQMNSLRAEDTAVYYCARDRGLRFYFDYWGQGTTVTVSS VL: EIVLTQSPATLSLSPGERATLSCRASSSVTYIHWYQQKPGSSPKSWIYATSNLASGIPARFSGSGSGTDFTLTISSLEPEDFAVYYCQHWSSKPPTFGQGTKLEIK
2.92	P1AE4143, Fab derived from P1AE2182 (Fab, V domains shown) VH: EVQLLESGGGLVQPGGSLRLSCAASGFTFTDYYMNWVRQAPGKGLEWVGFIGNKANGYTTEYSASVKGRFTISRDKSKNTLYLQMNSLRAEDTAVYYCARDRGLRFYFDYWGQGTTVTVSS VL: EIVLTQSPATLSLSPGERATLSCRASSSVTYIHWYQQKPGQAPRSWIYATSNLASGIPARFSGSGSGTDFTLTISSLEPEDFAVYYCQHWSSKPPTFGQGTKLEIK
